Data published in article PMC8249609 (Cell Research, 2021).

T1: MBP-fusion protein of the COMP EGF domain (mouse, UniProt Q9R0G6 84-261)
T1 construct: cartilage oligomeric matrix protein, mouse, EGF repeat domain; Vector pMAL-p5x; also called MBP-COMP-EGF; source: E. coli BL21, purified
T1 sequence (looked up): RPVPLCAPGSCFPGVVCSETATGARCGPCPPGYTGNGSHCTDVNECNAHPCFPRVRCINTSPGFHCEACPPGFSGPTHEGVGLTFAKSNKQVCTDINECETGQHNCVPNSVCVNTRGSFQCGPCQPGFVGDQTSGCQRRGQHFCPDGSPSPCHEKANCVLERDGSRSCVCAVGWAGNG

T2: YFP-tagged AT1 receptor ( (human AT1 or mouse AT1a …, UniProt P30556 1-359))
T2 construct: also called AT1-YFP; Flag-tagged AT1-YFP; source: HEK293T, transfected, in cells
T2 sequence (looked up): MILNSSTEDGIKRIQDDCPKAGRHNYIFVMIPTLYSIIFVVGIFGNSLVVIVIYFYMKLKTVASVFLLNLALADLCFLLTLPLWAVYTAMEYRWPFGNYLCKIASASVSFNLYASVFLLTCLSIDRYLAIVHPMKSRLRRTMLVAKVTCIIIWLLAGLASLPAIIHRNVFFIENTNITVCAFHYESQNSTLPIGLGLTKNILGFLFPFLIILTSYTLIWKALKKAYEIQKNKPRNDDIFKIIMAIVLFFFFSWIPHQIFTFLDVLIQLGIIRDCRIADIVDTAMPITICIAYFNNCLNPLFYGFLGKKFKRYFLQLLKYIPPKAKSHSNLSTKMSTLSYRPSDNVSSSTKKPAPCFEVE

B1: AT1 receptor, residues 1-318, with N-terminal Flag-tag and BRIL (Flag-BRIL-AT1) (receptor, UniProt P30556 1-318, looked up)
chain: MILNSSTEDGIKRIQDDCPKAGRHNYIFVMIPTLYSIIFVVGIFGNSLVVIVIYFYMKLKTVASVFLLNLALADLCFLLTLPLWAVYTAMEYRWPFGNYLCKIASASVSFNLYASVFLLTCLSIDRYLAIVHPMKSRLRRTMLVAKVTCIIIWLLAGLASLPAIIHRNVFFIENTNITVCAFHYESQNSTLPIGLGLTKNILGFLFPFLIILTSYTLIWKALKKAYEIQKNKPRNDDIFKIIMAIVLFFFFSWIPHQIFTFLDVLIQLGIIRDCRIADIVDTAMPITICIAYFNNCLNPLFYGFLGKKFKRYFLQLLK
notes: Order on the chain as printed: Flag-tag, BRIL, AT1; Detergent-solubilised (DDM/CHS in the running buffer); also called purified AT1 receptor; AngII type 1 receptor
B2: GST-fused N-terminus of mouse AT1a receptor (aa 1-27) (domain or fragment, UniProt P29754 1-27, looked up)
chain: MALNSSTEDGIKRIQDDCPRAGRHSYI
notes: also called GST-fused N-terminus of AT1a; source: purified (vector pGEX-6P-1; host not clearly stated)
B3: cartilage oligomeric matrix protein with a C-terminal His-tag (COMP-His) (natural protein)
chain: not shown
notes: cartilage oligomeric matrix protein, mouse, cDNA NM_016685.2; secreted into the conditioned medium of Sf9 cells; also called purified COMP; pentameric COMP protein
B4: β-arrestin-1 fused with Renilla luciferase (natural protein, UniProt P49407 1-418, looked up)
chain: MGDKGTRVFKKASPNGKLTVYLGKRDFVDHIDLVDPVDGVVLVDPEYLKERRVYVTLTCAFRYGREDLDVLGLTFRKDLFVANVQSFPPAPEDKKPLTRLQERLIKKLGEHAYPFTFEIPPNLPCSVTLQPGPEDTGKACGVDYEVKAFCAENLEEKIHKRNSVRLVIRKVQYAPERPGPQPTAETTRQFLMSDKPLHLEASLDKEIYYHGEPISVNVHVTNNTNKTVKKIKISVRQYADICLFNTAQYKCPVAMEEADDTVAPSSTFCKVYTLTPFLANNREKRGLALDGKLKHEDTNLASSTLLREGANREILGIIVSYKVKVKLVVSRGGLLGDLASSDVAVELPFTLMHPKPKEEPPHREVPENETPVDTNLIELDTNDDDIVFEDFARQRLKGMKDDKEEEEDGTGSPQLNNR
notes: β-arrestin-1; also called β-arrestin-1-RLuc; source: HEK293T, transfected, in cells
B5: mouse COMP fused with the modified Renilla luciferase at the C-terminus (natural protein)
chain: not shown
notes: cartilage oligomeric matrix protein, mouse; also called COMP-RLuc; source: HEK293T, transfected; not shown: RLuc (modified Renilla luciferase), C-terminal, kept

Key:
[1] = target: B3; test: SPR; BiaCore 8 K; AT1 amine-coupled to a CM5 chip (~4500 RU); analyte in two-fold dilutions (COMP 0.43–110 nM), 120 s association, 200 s dissociation; 10 mM HEPES pH 7.4, 150 mM NaCl, 0.05% P20, 0.01% DDM, 0.002% CHS; 1:1 binding model; settings: both partners purified
[2] = target: T1, MBP-fusion protein of the COMP EGF …; test: pull-down; MBP fusion proteins of COMP domains and GST-fused AT1a N-terminus, equimolar, 4 °C 2 h; amylose resin; western blot with anti-GST; settings: both partners purified
[3] = target: the molecule itself; test: SEC + native gel or EMSA; purified COMP; gel filtration chromatography and non-reduced native PAGE followed by western blotting; pentamer
YFP-tagged AT1 receptor [4] = target: T2, YFP-tagged AT1 receptor; test: FRET or BRET; HEK293T cells co-transfected with AT1-YFP and β-arrestin-1-RLuc or β-arrestin-2-RLuc; vehicle, then increasing AngII for 5 min; BRET ratio YFP/RLuc; settings: partners not purified
YFP-tagged AT1 receptor [5] = target: T2, YFP-tagged AT1 receptor; test: FRET or BRET; as a12, cells pre-incubated with purified COMP (100 nM) for 30 min before AngII; settings: partners not purified
[6] = target: the molecule itself; test: native gel or EMSA; COMP-RLuc; 6% native PAGE without SDS and β-mercaptoethanol is the paper's method for the pentameric form of COMP; shown in Supplementary Fig. S11a

Binder: B1
Kd [1]: 1.42 ± 0.014 nM

Binder: B2
binding result [2]: binds

Binder: B3
stoichiometry N [3]: 5

Binder: B4
EC50 of AngII for the recruitment (BRET), vehicle (YFP-tagged AT1 receptor [4]): 0.89 nM
EC50 of AngII for the recruitment (BRET), with 100 nM COMP (YFP-tagged AT1 receptor [5]): 2.16 nM

Binder: B5
stoichiometry N [6]: 5
